One molecule from publication PMC12768534 (Science immunology, 2025) can be followed below.

The experiment addresses mIL-21 (mouse, UniProt Q9ES17 18-146). In words: BLI; mIL-21 and 21h10 incubated in PBS or murine serum for 1-240 minutes at 37°C, then binding to mIL-21R. To be noted: both partners purified. For orientation: BLI is a label-free optical method that tracks binding on a fibre tip over time.

B1: biotinylated mIL-21R (receptor)
chain: not shown
modifications: biotin (biotinylated)
notes: murine IL-21 receptor, biotinylated recombinant protein; Held on streptavidin biosensors by its biotin; limits and tags are the vendor's; also called murine IL-21 receptor; source: bought: Acro Biosystems Cat# ILR-M82E3
For the molecule B1, the binding result is “binds”.
